Test results: paper PMC5388806

Target: MtrR-MBP (Neisseria gonorrhoeae) (UniProt P39897)
Test: competition EMSA
Conditions: 30 ul reaction buffer (composition not stated), room temperature; 6% native PAGE at 4 C; 2 ug MtrR-MBP or 1 ug GdhR-His

MtrR-MBP (Neisseria gonorrhoeae), sequence (P39897 whole entry): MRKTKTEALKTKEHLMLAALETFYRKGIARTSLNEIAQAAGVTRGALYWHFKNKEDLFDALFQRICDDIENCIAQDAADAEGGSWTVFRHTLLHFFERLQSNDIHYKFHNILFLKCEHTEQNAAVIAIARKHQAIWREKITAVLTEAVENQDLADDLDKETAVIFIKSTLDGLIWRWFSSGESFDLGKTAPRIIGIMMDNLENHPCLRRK

Sequence | binding
TGCCGTTGACGGCGGGAACGGCGTGTCATTAGAATCCGCCCTGATTGGCCAGTCCAATTTGATGTTTGATGTATTTCGGAAGGGTTCTGCAGGGAATCTTTATAAAGGAGGAGTGATGAAAC (double strand) [R4/R2 (gdhR promoter and downstream)] | binds
CCGTTCCCGCCGTCAACGGCACTTACCTCGCACCGCCCCCGAAACACAGGAAAAAACTACACCAAACTACAATTTTTGTTCATGCAAATATTTGTTTTAACGGGATTTAAATGAAAGCTCCGATTCAAATCTGCCGAACCGCCCAAAAATATATTGACCTGAATATTAAAGTTTCGTAAAGTAATGCAACGTTGCTTTAATTGGTTTGACCACTATTGCCGACGATTAGAAAAATATTTTCGGAGATGTTCAATTATGGAAACTTGGGTTCAAAACTACACGGCAATCGGCG (double strand) [R3/R5 (upstream of gdhR promoter)] | no binding
